Test results taken from publication PMC12310653.
pKi: −log10 of the molar value.

Molecular target: cathepsin L
Experiment: enzyme inhibition kinetics (Morrison equation for tight-binding inhibition); active cathepsin L (6 nM) incubated with varying concentrations of Amblyostatin-1 in 50 mM sodium acetate pH 5.5 at 37°C for 10 min; substrate Z-Phe-Arg-AMC; fluorescence read at 30°C over 15 min; residual Vmax fitted

recombinant Amblyostatin-1 (natural protein)
pKi: 9.16
